To fix the notation:
T1: Boi1 SH3 (BOI1_YEAST), P38041
T1 chain: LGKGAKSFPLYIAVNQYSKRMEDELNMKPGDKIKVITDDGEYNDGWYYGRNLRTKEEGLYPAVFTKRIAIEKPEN

T2: Boi2 SH3 (BOI2_YEAST), P39969
T2 chain: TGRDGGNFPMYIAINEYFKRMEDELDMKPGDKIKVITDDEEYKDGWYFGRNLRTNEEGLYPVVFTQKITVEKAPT

T3: Rvs167 SH3 (RV167_YEAST), P39743
T3 chain: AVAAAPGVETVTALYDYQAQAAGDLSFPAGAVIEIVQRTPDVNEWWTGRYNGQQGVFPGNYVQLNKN

T4: Yfr024 SH3 (LSB3_YEAST), P43603
T4 chain: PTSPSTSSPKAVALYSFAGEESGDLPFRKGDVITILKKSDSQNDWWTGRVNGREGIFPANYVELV

T5: Myo5 SH3 (MYO5_YEAST), Q04439
T5 chain: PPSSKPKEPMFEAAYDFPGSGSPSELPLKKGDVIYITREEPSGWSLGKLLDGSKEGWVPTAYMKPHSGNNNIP

T6: Yhr016c SH3 (YSC84_YEAST), P32793
T6 chain: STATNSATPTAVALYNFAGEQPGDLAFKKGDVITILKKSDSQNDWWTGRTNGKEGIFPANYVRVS

B1: YOR336W 752-765 (peptide)
chain: LGLHKWLPDIPLFE
B2: YNL231C 198-211 (peptide)
chain: LIDFKDYPDVPKVP
B3: YAL048C 610-623 (peptide)
chain: LDPGKNTPGLPEET
B4: YDL027C 309-322 (peptide)
chain: LDSMKNLPLNPSKK
B5: YDL197C 382-395 (peptide)
chain: LGSEKSSPLAPAVA
B6: YLR214W 271-284 (peptide)
chain: LFGIRNNPFIPITG
B7: YMR022W 58-71 (peptide)
chain: LEFPKDYPLSPPKL

In one assay the target is T1, Boi1 SH3 (BOI1_YEAST), P38041. Put plainly: SPOT array.
B1 came in with a normalised SPOT signal, Boehringer light units (BLU); mean over the file's lines of this peptide of 180.
Turning to B2, the normalised SPOT signal, Boehringer light units (BLU); mean over the file's lines of this peptide came out at 15.5.
With B3, the normalised SPOT signal, Boehringer light units (BLU); mean over the file's lines of this peptide is 37.7.
In turn, B4 displayed a normalised SPOT signal, Boehringer light units (BLU); mean over the file's lines of this peptide of 178.
Same read-out and setting: for B5 the value was 72.6; for B6, 281; for B7, 110.

Another assay deals with Sho1 SH3 (SHO1_YEAST), P40073. Put plainly: SPOT array.
Sho1 SH3 (SHO1_YEAST), P40073, sequence (P40073 295-366): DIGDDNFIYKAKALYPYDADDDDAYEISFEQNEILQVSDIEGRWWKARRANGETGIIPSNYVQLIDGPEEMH
Consider B1, for which the normalised SPOT signal, Boehringer light units (BLU); mean over the file's lines of this peptide is 10800.
On the same count and under the same terms, for B2 the value was 36; for B3, -0.
The molecule B4 had a normalised SPOT signal, Boehringer light units (BLU); mean over the file's lines of this peptide of 8000.
Still for that read-out and setting: for B5 the value was 11.2; for B6, 15.8.
Still for that read-out and setting: for B7 the value was 78.8.

A further assay deals with T2, Boi2 SH3 (BOI2_YEAST), P39969. The assay can be described thus: SPOT array.
B1: the normalised SPOT signal, Boehringer light units (BLU); mean over the file's lines of this peptide came out at 15.1.
In turn, B2 had a normalised SPOT signal, Boehringer light units (BLU); mean over the file's lines of this peptide of 47.9.
Still for that read-out and setting: in the case of B3 it was 126.
On the same count and under the same terms, in the case of B4 it was 41.3.
B5 gave a normalised SPOT signal, Boehringer light units (BLU); mean over the file's lines of this peptide of 52.5.
The molecule B6 came in with a normalised SPOT signal, Boehringer light units (BLU); mean over the file's lines of this peptide of 25.5.
B7 had a normalised SPOT signal, Boehringer light units (BLU); mean over the file's lines of this peptide of 0.

In a further assay the target is T3, Rvs167 SH3 (RV167_YEAST), P39743. The assay can be described thus: SPOT array.
B1 registered a normalised SPOT signal, Boehringer light units (BLU); mean over the file's lines of this peptide of 16.5.
With B2, the normalised SPOT signal, Boehringer light units (BLU); mean over the file's lines of this peptide was 28.2.
Still for that read-out and setting: in the case of B3 it was 33.4; in that of B4, 72.9.
Still for that read-out and setting: for B5 the value was 64.8; for B6, 139.
In turn, B7 registered a normalised SPOT signal, Boehringer light units (BLU); mean over the file's lines of this peptide of 114.

The next assay has as its target T4, Yfr024 SH3 (LSB3_YEAST), P43603. The assay can be described thus: SPOT array.
B1 gave a normalised SPOT signal, Boehringer light units (BLU); mean over the file's lines of this peptide of 49.
The same measure, in the same setting: for B2 the value was 12.7.
With B3, the normalised SPOT signal, Boehringer light units (BLU); mean over the file's lines of this peptide was determined as 36.6.
Same read-out and setting: in the case of B4 it was 348.
On the same count and under the same terms, in the case of B5 it was 21.4; in that of B6, 342; in that of B7, 64.1.

For the next assay, the target named is T5, Myo5 SH3 (MYO5_YEAST), Q04439. Put plainly: SPOT array.
The molecule B1 registered a normalised SPOT signal, Boehringer light units (BLU); mean over the file's lines of this peptide of 168.
The same measure, in the same setting: in the case of B2 it was 154.
On the same count and under the same terms, for B3 the value was 156; for B4, 268.
The molecule B5 came in with a normalised SPOT signal, Boehringer light units (BLU); mean over the file's lines of this peptide of 122.
Same read-out and setting: in the case of B6 it was 170; in that of B7, 135.

The target in another assay is T6, Yhr016c SH3 (YSC84_YEAST), P32793. Put plainly: SPOT array.
For B1, the normalised SPOT signal, Boehringer light units (BLU); mean over the file's lines of this peptide worked out at 44.6.
Molecule B2 showed a normalised SPOT signal, Boehringer light units (BLU); mean over the file's lines of this peptide of 2.
The same measure, in the same setting: for B3 the value was 15.3.
Consider B4, for which the normalised SPOT signal, Boehringer light units (BLU); mean over the file's lines of this peptide is 78.8.
On the same count and under the same terms, for B5 the value was 26.8; for B6, 426.
Turning to B7, the normalised SPOT signal, Boehringer light units (BLU); mean over the file's lines of this peptide amounted to 14.8.

The values above are taken from article PMC314469, “Protein Interaction Networks by Proteome Peptide Scanning” (PLoS Biology, 2004).
